The text below walks through data of the supplement of paper PMC9112550, “Optimization of the antimicrobial peptide Bac7 by deep mutational scanning” (BMC Biology, 2022).

In the data set the test system is Escherichia coli TOP10. In words: shrunken log2 fold change of peptide-encoding DNA abundance (4.5 h post-induction vs induction); higher = less antimicrobial activity (less host growth inhibition). The conditions noted are these: time post-induction: 4.5 h; library: site-saturation at positions 5, 18, 19, 20.
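Note: peptides expressed intracellularly from a pBAD plasmid library in pooled LB shake-flask culture, induced with 0.3% L-arabinose, DNA abundance read by NGS, three biological replicates, DESeq2 with apeglm shrinkage.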

As for RRIRWRPPRLPRPRPRPQENPRP, the “shrunken log2 fold change” value was -0.0785.

With RRIRQRPPRLPRPRPRPKCVPRP, the “shrunken log2 fold change” value is -0.018.

On to RRIRHRPPRLPRPRPRPSWLPRP, for which the “shrunken log2 fold change” value was -0.0847.

RRIRIRPPRLPRPRPRPLILPRP: the “shrunken log2 fold change” value is -0.895.

Consider RRIRLRPPRLPRPRPRPFAHPRP, for which the “shrunken log2 fold change” value was -0.367.

Consider RRIRPRPPRLPRPRPRPVVMPRP, for which the “shrunken log2 fold change” value is -0.174.

Turning to RRIRWRPPRLPRPRPRPYMGPRP, the “shrunken log2 fold change” value is -0.106.

For the sequence RRIRLRPPRLPRPRPRPATLPRP, the “shrunken log2 fold change” value was -0.12.

As for RRIRNRPPRLPRPRPRPRVCPRP, the “shrunken log2 fold change” value came to 0.205.

On to RRIRARPPRLPRPRPRPAASPRP, for which the “shrunken log2 fold change” value worked out at 0.928.

In the case of RRIRARPPRLPRPRPRPHFWPRP, the “shrunken log2 fold change” value came out at 0.23.

As to RRIRMRPPRLPRPRPRPDVEPRP, the “shrunken log2 fold change” value came out at 3.52.

Turning to RRIRIRPPRLPRPRPRPQPRPRP, the “shrunken log2 fold change” value amounted to 0.343.

Take RRIRDRPPRLPRPRPRPRNWPRP: the “shrunken log2 fold change” value was found to be 0.615.

Turning to RRIRARPPRLPRPRPRPDGYPRP, the “shrunken log2 fold change” value came out at 0.647.

Regarding RRIRYRPPRLPRPRPRPFMRPRP, the “shrunken log2 fold change” value is -0.499.

Turning to RRIRFRPPRLPRPRPRPEINPRP, the “shrunken log2 fold change” value was -0.00788.

Regarding RRIRQRPPRLPRPRPRPFTEPRP, the “shrunken log2 fold change” value was -0.223.

With RRIRGRPPRLPRPRPRPQLRPRP, the “shrunken log2 fold change” value was 0.139.

For RRIRCRPPRLPRPRPRPHVNPRP, the “shrunken log2 fold change” value is -0.497.

Regarding RRIRYRPPRLPRPRPRPQNIPRP, the “shrunken log2 fold change” value was -1.24.

Turning to RRIRNRPPRLPRPRPRPKKYPRP, the “shrunken log2 fold change” value is -0.69.

Regarding RRIRERPPRLPRPRPRPFMKPRP, the “shrunken log2 fold change” value was -0.0971.

As to RRIRVRPPRLPRPRPRPMRDPRP, the “shrunken log2 fold change” value came to 0.0208.

As to RRIRLRPPRLPRPRPRPWLGPRP, the “shrunken log2 fold change” value is 0.181.

Turning to RRIRSRPPRLPRPRPRPEDDPRP, the “shrunken log2 fold change” value worked out at 0.744.

As to RRIRARPPRLPRPRPRPDAQPRP, the “shrunken log2 fold change” value was 1.35.

As for RRIRWRPPRLPRPRPRPKVGPRP, the “shrunken log2 fold change” value was 0.0351.

Regarding RRIRQRPPRLPRPRPRPEQEPRP, the “shrunken log2 fold change” value is -0.0311.

Turning to RRIRPRPPRLPRPRPRPFLPPRP, the “shrunken log2 fold change” value is -0.0925.

Consider RRIRNRPPRLPRPRPRPHLSPRP, for which the “shrunken log2 fold change” value is -0.259.

As for RRIRPRPPRLPRPRPRPACHPRP, the “shrunken log2 fold change” value stood at 0.111.

As to RRIRQRPPRLPRPRPRPRGAPRP, the “shrunken log2 fold change” value came out at 0.399.

As for RRIRWRPPRLPRPRPRPMEKPRP, the “shrunken log2 fold change” value was 0.0685.

RRIRMRPPRLPRPRPRPVWNPRP: the “shrunken log2 fold change” value is -0.0831.

As to RRIRKRPPRLPRPRPRPWNSPRP, the “shrunken log2 fold change” value was 0.0199.

For the sequence RRIRHRPPRLPRPRPRPTTGPRP, the “shrunken log2 fold change” value was -0.117.

RRIRVRPPRLPRPRPRPDYRPRP: the “shrunken log2 fold change” value is -0.00433.

RRIRLRPPRLPRPRPRPSKMPRP: the “shrunken log2 fold change” value was -0.212.

As to RRIRLRPPRLPRPRPRPPEIPRP, the “shrunken log2 fold change” value was 0.196.

For RRIRGRPPRLPRPRPRPRGTPRP, the “shrunken log2 fold change” value worked out at 1.16.

As for RRIRDRPPRLPRPRPRPFVMPRP, the “shrunken log2 fold change” value was determined as 0.0243.

Consider RRIRCRPPRLPRPRPRPPHKPRP, for which the “shrunken log2 fold change” value was 0.68.

Consider RRIRWRPPRLPRPRPRPEFTPRP, for which the “shrunken log2 fold change” value was 0.362.

On to RRIRGRPPRLPRPRPRPSYPPRP, for which the “shrunken log2 fold change” value is -0.215.

Regarding RRIRDRPPRLPRPRPRPHIIPRP, the “shrunken log2 fold change” value is -1.27.

Regarding RRIRFRPPRLPRPRPRPSWHPRP, the “shrunken log2 fold change” value was -0.475.

Take RRIRARPPRLPRPRPRPHYVPRP: the “shrunken log2 fold change” value was -0.255.

RRIRLRPPRLPRPRPRPWPEPRP: the “shrunken log2 fold change” value was 0.243.

As to RRIRMRPPRLPRPRPRPWCLPRP, the “shrunken log2 fold change” value is -0.208.
